From US20240116985A1 (published 2024)
Starred links: 1 amine or outer side, 2 acyl side, 3 side chain; linkers in the order of their positions; H or OH if unused. Positions of bridges follow the written chain, without caps; N, C: chain ends. Non-standard residues stand in square brackets, D forms with d. Primed or numbered codes have the meaning given here. PyrS2″ = (S)-3-amino-1-((pent-4-en-1-yloxy)carbonyl)pyrrolidine-3-carboxylic acid (stapling residue), C=CCCCOC(=O)N1CC[C@@](N[*:1])(C(=O)[*:2])C1; B5(4) = 2,2-bis(4-pentenyl)glycine = 2-amino-2-(pent-4-en-1-yl)hept-6-enoic acid (stitching residue), C=CCCCC(CCCC=C)(N[*:1])C(=O)[*:2]; TfeGA = (S)-2-amino-3-((carboxymethyl)(2,2,2-trifluoroethyl)amino)propanoic acid, O=C([C@H](CN(CC(=O)[*:3])CC(F)(F)F)N[*:1])[*:2]; TriAzDap = Dap whose side chain is a 1H-1,2,3-triazol-1-yl bearing the bracketed 4-substituent; B5(3) = 2,2-bis(4-pentenyl)glycine (stitching residue), C=CCCCC(CCCC=C)(N[*:1])C(=O)[*:2]; AcLys″ = N6-acetyl-lysine, CC(=O)NCCCC[C@H](N[*:1])C(=O)[*:2]; Phe(3-COOH) = N[C@@H](Cc1cccc(C(=O)O)c1)C(=O)O; 2F3MeF = Cc1cccc(C[C@H](N[*:1])C(=O)[*:2])c1F; Phe(2-CF3) = N[C@@H](Cc1ccccc1C(F)(F)F)C(=O)O; Phe(2-Cl) = N[C@@H](Cc1ccccc1Cl)C(=O)O; Bta = N[C@@H](Cc1csc2ccccc12)C(=O)O; Lys(iPr) = CC(C)NCCCC[C@H](N)C(=O)O; αAllylPro = C=CC[C@@]1(C(=O)O)CCCN1; tBuAla = CC(C)(C)C[C@H](N)C(=O)O; 3Thi = N[C@@H](Cc1ccsc1)C(=O)O; Thr(ol) = C[C@@H](O)[C@H](N)CO; PyrS2(4) = not defined here; hSer = N[C@@H](CCO)C(=O)O; Abu = CC[C@H](N)C(=O)O; Aib = CC(C)(N)C(=O)O

Key:
Test in all cases: cell-based or functional assay
[1] = target: T1, beta-catenin in DLD1 TCF/LEF luciferase reporter cells (UniProt P35222 1-781)
T1 sequence (looked up): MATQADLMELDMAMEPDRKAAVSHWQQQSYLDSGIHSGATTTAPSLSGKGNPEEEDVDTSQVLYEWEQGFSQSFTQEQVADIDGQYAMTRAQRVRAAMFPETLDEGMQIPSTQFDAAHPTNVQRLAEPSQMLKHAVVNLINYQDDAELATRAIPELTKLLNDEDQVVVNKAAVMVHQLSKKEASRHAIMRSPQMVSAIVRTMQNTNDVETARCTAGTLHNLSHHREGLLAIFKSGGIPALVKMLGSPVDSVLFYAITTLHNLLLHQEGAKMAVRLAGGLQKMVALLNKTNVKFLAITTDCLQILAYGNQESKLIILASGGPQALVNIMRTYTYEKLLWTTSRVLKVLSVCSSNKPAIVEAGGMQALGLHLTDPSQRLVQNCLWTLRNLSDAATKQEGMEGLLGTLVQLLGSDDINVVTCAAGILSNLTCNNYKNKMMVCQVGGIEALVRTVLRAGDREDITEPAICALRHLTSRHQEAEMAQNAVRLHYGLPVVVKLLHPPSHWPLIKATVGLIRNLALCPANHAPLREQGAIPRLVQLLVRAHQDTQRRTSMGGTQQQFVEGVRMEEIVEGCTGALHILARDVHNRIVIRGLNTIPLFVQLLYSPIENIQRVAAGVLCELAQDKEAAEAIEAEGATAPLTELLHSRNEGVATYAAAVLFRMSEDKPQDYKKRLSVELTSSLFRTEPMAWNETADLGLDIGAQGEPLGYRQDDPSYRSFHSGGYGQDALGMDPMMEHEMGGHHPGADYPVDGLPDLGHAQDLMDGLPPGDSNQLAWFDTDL

[2] = target: T2, beta-catenin in DLD1 TCF/LEF luciferase reporter cells (UniProt P35222 1-781); remark: listed apart in the source
T2 sequence (looked up): T1 sequence (looked up)

[3] = target: T3, beta-catenin in DLD1 TCF/LEF luciferase reporter cells (UniProt P35222 2-781)
T3 sequence (looked up): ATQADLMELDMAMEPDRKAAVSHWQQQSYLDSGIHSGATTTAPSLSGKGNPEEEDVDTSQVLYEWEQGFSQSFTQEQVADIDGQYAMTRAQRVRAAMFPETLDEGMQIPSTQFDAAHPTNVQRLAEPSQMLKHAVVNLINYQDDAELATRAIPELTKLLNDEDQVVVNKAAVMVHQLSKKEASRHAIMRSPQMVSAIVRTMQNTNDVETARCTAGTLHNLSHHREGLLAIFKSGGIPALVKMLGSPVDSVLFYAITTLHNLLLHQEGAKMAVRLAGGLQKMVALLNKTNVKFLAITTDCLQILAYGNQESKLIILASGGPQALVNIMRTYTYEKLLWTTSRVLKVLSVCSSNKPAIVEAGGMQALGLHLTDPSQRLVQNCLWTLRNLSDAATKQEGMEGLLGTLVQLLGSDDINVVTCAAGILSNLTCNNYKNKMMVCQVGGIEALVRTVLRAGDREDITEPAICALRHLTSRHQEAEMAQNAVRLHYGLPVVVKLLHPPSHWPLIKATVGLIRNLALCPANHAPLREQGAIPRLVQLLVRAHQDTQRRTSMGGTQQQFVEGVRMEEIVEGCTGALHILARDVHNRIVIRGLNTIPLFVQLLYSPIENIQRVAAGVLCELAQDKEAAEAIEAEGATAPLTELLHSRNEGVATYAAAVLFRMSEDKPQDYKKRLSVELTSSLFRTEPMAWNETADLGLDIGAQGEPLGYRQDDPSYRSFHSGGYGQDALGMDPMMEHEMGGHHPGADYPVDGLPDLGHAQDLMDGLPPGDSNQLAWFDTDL

B-cat-Halo [4] = target: T4, B-cat-Halo (UniProt P35222 1-781)
T4 sequence (looked up): T1 sequence (looked up)

B-cat-Halo [5] = target: T5, B-cat-Halo (Homo sapiens (Human), UniProt P35222 1-781)
T5 sequence: T1 sequence (looked up)

[6] = target: T6, beta-catenin in DLD1 TCF/LEF luciferase reporter cells (Homo sapiens (Human), UniProt P35222 1-781)
T6 sequence: T1 sequence (looked up)

[7] = target: T7, beta-catenin in DLD1 TCF/LEF luciferase reporter cells (UniProt P35222 1-781); remark: listed apart in the source
T7 sequence (looked up): T1 sequence (looked up)

B-cat-Halo [8] = target: T8, B-cat-Halo (UniProt P35222 1-781); remark: listed apart in the source
T8 sequence (looked up): T1 sequence (looked up)

[9] = target: T9, beta-catenin in DLD1 TCF/LEF luciferase reporter cells (Homo sapiens (Human), UniProt P35222 1-781); remark: listed apart in the source
T9 sequence: T1 sequence (looked up)

[10] = target: T10, beta-catenin in DLD1 TCF/LEF luciferase reporter cells (UniProt P35222 1-781); remark: listed apart in the source
T10 sequence (looked up): T1 sequence (looked up)

[11] = target: T11, beta-catenin in DLD1 TCF/LEF luciferase reporter cells (UniProt P35222 1-781); remark: listed apart in the source
T11 sequence (looked up): T1 sequence (looked up)

[12] = target: T12, B-cat-Halo (beta-catenin HaloTag NanoBRET construct expressed in HEK293 cells) (UniProt P35222 1-781)
T12 sequence (looked up): T1 sequence (looked up)

[13] = target: T13, Bcat-Halo (beta-catenin HaloTag construct transfected into HEK293 cells) (UniProt P35222 1-781)
T13 sequence (looked up): T1 sequence (looked up)

B1: I-2372 (peptide)
peptide: Ac-[αAllylPro]D[tBuAla][B5(3)]D[TriAzDap](CH2CMe2CO2H)AAFL[PyrS2″][Phe(2-CF3)][Bta]S-NH2
modifications: staple 1-4, 4-11
DLD1 4% Abs IC50 [1]: 2100 nM

B2: I-988 (peptide)
peptide: Ac-[αAllylPro]D[tBuAla][B5(3)]D[TfeGA]AAFF[PyrS2″]F[Bta]Q-NH2
modifications: staple 1-4, 4-11
DLD1 reporter assay Abs IC50 [2]: 5200 nM

B3: I-1616 (peptide)
peptide: Ac-[αAllylPro]D[tBuAla][B5(3)]D[Phe(3-COOH)]AAFL[PyrS2(4)][2F3MeF][Bta][Lys(iPr)]-NH2
modifications: staple 1-4, 4-11; not fully specified; printed as Ac-PL3-Asp-Npg-B5-Asp-3COOHF-Ala-Ala-Phe-Leu-PyrS2-2F3MeF-BztA-iPrLys-NH2; reading uncertain
DLD1 4% Abs IC50 [3]: 2800 nM
NanoBRET Abs IC50 (B-cat-Halo [4]): 4500 nM

B4: I-2043 (peptide)
peptide: Ac-[αAllylPro]D[tBuAla][B5(3)]D[Phe(3-COOH)]AAFL[PyrS2″][3Thi][Bta]N-NH2
modifications: staple 1-4, 4-11
NanoBRET Abs IC50 (B-cat-Halo [5]): 2800 nM
DLD1 4% Abs IC50 [6]: 1000 nM

B5: I-1709 (peptide)
peptide: Ac-[αAllylPro]D[tBuAla][B5(4)]D[TfeGA]AAFL[PyrS2″][3Thi][Bta][AcLys″]-NH2
modifications: staple 1-4, 4-11
DLD1 4% Abs IC50 [7]: 3900 nM
NanoBRET Abs IC50 (B-cat-Halo [8]): 6200 nM

B6: I-1245 (peptide)
peptide: Ac-[αAllylPro]D[tBuAla][B5(4)]DDAAFT[PyrS2″][Phe(2-Cl)][Bta][Thr(ol)]
modifications: staple 1-4, 4-11
DLD1 4% Abs IC50 [9]: 4100 nM

B7: I-1466 (peptide)
peptide: Ac-[αAllylPro]D[tBuAla][B5(4)]D[Phe(3-COOH)]AAFL[PyrS2(4)][2F3MeF][Bta]Q-NH2
modifications: staple 1-4, 4-11; not fully specified; printed as Ac-PL3-Asp-Npg-B5-Asp-3COOHF-Ala-Ala-Phe-Leu-PyrS2-2F3MeF-BztA-Gln-NH2; reading uncertain
DLD1 4% Abs IC50 [10]: 700 nM

B8: I-2378 (peptide)
peptide: Ac-[αAllylPro]D[tBuAla][B5(3)]D[Phe(3-COOH)]AAFL[PyrS2″][Phe(2-CF3)][Bta]QLA-NH2
modifications: staple 1-4, 4-11
DLD1 4% Abs IC50 [1]: 1000 nM

B9: Ac-PL3-Asp-Npg-B5-Asp-3COOHF-Aib-Ala-Phe-Abu-PyrS2-3Thi-BztA-Me2Gln-Ala-NH2 (peptide)
peptide: Ac-[αAllylPro]D[tBuAla][B5(3)]D[Phe(3-COOH)][Aib]AF[Abu][PyrS2″][3Thi][Bta][Me2Gln]A-NH2
modifications: staple 1-4, 4-11
DLD1 4% Abs IC50 [11]: 600 nM
NanoBRET Abs IC50 [12]: 2300 nM

B10: I-993 (peptide)
peptide: Ac-[αAllylPro]D[tBuAla][B5(3)]D[TfeGA]AAF[hSer][PyrS2″][Phe(2-Cl)][Bta][hSer]-NH2
modifications: staple 1-4, 4-11
DLD1 reporter assay Abs IC50 [2]: 4400 nM

B11: I-1462 (peptide)
peptide: Ac-[αAllylPro]D[tBuAla][B5(4)]D[Phe(3-COOH)]AAFL[PyrS2″][3Thi][Bta]Q-NH2
modifications: staple 1-4, 4-11
DLD1 4% Abs IC50 [10]: 2700 nM
NanoBRET Abs IC50 [13]: 2300 nM
